The source of these data is CN111732655A (INST MILITARY MEDICINE ACADEMY MILITARY SCIENCES PLA, dated 2020).

In experiment [1] the target is 全长SARS-CoV-2 S蛋白 (GenBank ID: QHD43416.1)，展示于HIV假病毒 (SARS-CoV-2, UniProt P0DTC2 14-1273). Description: cell-based or functional assay.
Another experiment deals with SARS-CoV-2真病毒的S蛋白 (SARS-CoV-2, UniProt P0DTC2 14-1273). As to the kind of experiment: cell-based or functional assay.

“And” between values parts separate entries of the source, which are not always exact repeats. Equal values may be shown once.

B1: 单克隆抗体4B7 (抗SARS-CoV-2全人源单克隆抗体) (antibody, V domains shown)
VH: EVQLVESGGGLVQPGGSLRLSCAASGFPFSSYAMSWVRQAPGKGLEWVSAITGSGGSTYYADSVKGRFTISRDNSKNTLYLHMNSLRAEDTAVYYCAKDDYGDYVLGAFDIWGQGTTVTVSS
VL: QSALTQPASVSGSPGQSITISCTGTSSDVGTYKFVSWYQQHPGKAPKLMIYEGSKRPSGVSNRFSGSKSGNTASLTISGLQAEDEADYYCCSYAGSSTLVFGGGTKLTVL
As for B1, in experiment [1], the “假病毒模型上EC50 (luciferase, ACE2-293T细胞)” value is 0.052 ug/ml and 0.35 nM. Besides, in the experiment with SARS-CoV-2真病毒的S蛋白, the “病毒感染的细胞模型上EC50 (Vero E6细胞, 结晶紫染色细胞活率)” value was 0.38 ug/ml and 2.5 nM.
